# Laboratory results taken from patent US20220363623A1, “IMAGING AND THERAPEUTIC COMPOSITIONS” (priority 2019, published 2022).
# *1 amine or outer side, *2 acyl side, *3 side chain or, on linkers, in order; H or OH if unused. Where a SMILES comes first, the peptide text is derived from it. Bridges are numbered along the chain shown (N, C = ends). Side-chain parts run from the residue outwards. [ ]: non-standard residue; d: D form. The star is where a group is joined. X1 = O=C([C@@H](Cc1ccccc1)N(c1c(NCCCCCN(O)[*:3])c(=O)c1=O)[*:1])[*:2]; X2 = CC(=O)N(O)CCCCCNC(=O)CCC(=O)N(O)CCCCCN*; Suc = O=C(CCC(=O)[*:2])[*:1]
# Assays:
# Set-up in all cases: species or system mice
# in vivo [1] = conditions: male, mouse, total radioactivity; for tissue uptake at 1 h: Tumour Uptake % ID/g 1 h pi; for tissue uptake at 18 h: Tumour Uptake % ID/g 18 h pi
# Description: (§1) PET-CT imaging and Biodistribution. Male Balb/c nude mice (age 8.5 weeks) or Male NSG mice (age 12 weeks) were inoculated subcutaneously on the right flank with 6×10^6 LNCap cells in PBS:Matrigel (1:1). Mice were weighed and tumours measured twice weekly using electronic callipers. Tumour volume (mm^3) was calculated as length×width×height×π/6. Mice were assigned for imaging and biodistribution studies (tumour volumes: 85-450 mm3). ^89Zr-DFOSq-PSMA tracers were then administered intravenously by tail vein injection to 6 mice. At 1, 2, 4 and 18 hr post injection three mice were anaesthetised using isoflurane and placed on the imaging bed of a G8 PET/CT scanner (Perkin Elmer). A CT scan was performed and followed immediately by a 10 min static PET scan. PET images were reconstructed using the maximal likelihood and expectation maximization (ML-EM) algorithm. PET Images were analysed using VivoQuant (Invicro) and Tumour SUVmax or Tumour SUVmax/background average (TBR) determined. After imaging at 18 hr mice were euthanised and selected tissues were excised, weighed and counted using a Capintec (Captus 4000e) gamma counter. A separate cohort of 3 mice was harvested at 1 hr post injection for biodistribution analysis as above. The data was analysed using GraphPad Prism 7 and differences between tracers analysed using a t-test.
# (§2) ^89Zr Labelled tracers: The ^89Zr radiolabelled PSMA tracers were injected intravenously via tail vein to LNCaP (human PSMA expressing prostate cancer cell line) tumour bearing mice. At 1, 2, 4 and 18 h post-injection the mice were anaesthetised with isoflurane and imaged over 10 min. The representative PET images of mice injected with ^89Zr radiolabelled PSMA tracers at 1 and 18 hr are shown in FIG. 1 and quantitation of the Tumour SUVmax for each tracer is shown in FIG. 2a. […] There was a trend for higher tumour SUVmax for (4) tracer compared to all other tracers at all time points. […] A comparison of tumour uptake values is shown in FIG. 2b and the tissue biodistribution data for the tracers at 1 and 18 hr is summarised in FIG. 3.
# (§3) ^68Ga Labelled tracers: Representative PET images of mice injected with ^68Ga(1) and ^68Ga(4) are shown in FIG. 4 and quantitation of the tumour SUVmax is shown in FIG. 5a. […] Tumour uptake of ^68Ga(4) was 1.6 and 1.8 fold higher than ^68Ga(1) at 1 and 2 hr p.i., respectively. This is consistent with the biodistribution results where tumour % ID/g for ^68Ga(4) was higher than ^68Ga(1) at 1 hr (10.8±1.3 vs 6.5±0.4) and at 2.5 hr (8.6±1.0 vs 4.1±0.5) p.i. […] (6.5±0.4% ID/g at 1 hr vs 4.1±0.5% ID/g at 2.5 hr). In contrast, there was no significant change in ^68Ga(4) tumour retention at 1 and 2.5 p.i. (10.8±1.3% ID/g vs […], FIG. 5b).
# [2] = system: LNCaP (human PSMA expressing prostate cancer cell line) tumour; conditions: mouse, in vivo
# Description: as §1, §2, §3
# [3] = system: LNCaP (human PSMA expressing prostate cancer cell line) tumour; test: in vivo; conditions: mouse
# Description: as §1, §2, §3
# in vivo [4] = conditions: female, Balb/c nude, mouse, iv, total radioactivity
# Description: (§4) PET-CT imaging and Biodistribution of Octreotate/tide Tracers. Female Balb/c nude mice (age 9 weeks) were inoculated subcutaneously on the right flank with 3×10^6 AR42J cells in PBS:Matrigel (1:1). Mice were weighed and tumours measured twice weekly using electronic callipers. Tumour volume (mm^3) was calculated as length^2×width/2. 12 mice were assigned for imaging and biodistribution studies (tumour volumes: 170-550 mm^3). DFOSqTIDE (2.5 MBq) and DFOSqTATE (2.2 MBq) were administered intravenously by tail vein injection to mice on. At 1, 2, 4 and 18 hr post injection three mice were anaesthetised using isoflurane and placed on the imaging bed of a G8 PET/CT scanner (Perkin Elmer). A CT scan was performed which was immediately followed by a 10 min static PET scan. PET images were reconstructed using the maximal likelihood and expectation maximization (ML-EM) algorithm. PET images were analysed using VivoQuant (Invicro) and Tumour SUVmax, Tumour SUVmax/background average (TBR) and Tumour SUVmax/liver average (TLR) determined. After imaging at 18 hr mice were euthanised and selected tissues were excised, weighed and counted using a Capintec (Captus 4000e) gamma counter. A separate cohort of 3 mice was harvested at 1 hr post injection for biodistribution analysis. The data was analysed using GraphPad Prism 7 and differences between tracers analysed using a t-test. The high tumor uptake was confirmed by an ex vivo biodistribution study in the same mouse model where mice were injected with either ^68GaDFOSq-TIDE and ^68GaDFOSq-TATE (2-3 MBq, 1 μg, 0.5 nmol) and then euthanised at either 1 h or 2 h after administration. The amount of injected activity per gram of tissue (% IA/g) in the tumor and major organs was quantified (FIG. 16).
# [5] = system: AR42J (rat pancreatic cancer cell line) tumour; test: in vivo; conditions: mouse
# Description: as §4, with “t-test.” for “t-test. The high tumor uptake was confirmed by an ex vivo biodistribution study in the same mouse model where mice were injected with either ^68GaDFOSq-TIDE and ^68GaDFOSq-TATE (2-3 MBq, 1 μg, 0.5 nmol) and then euthanised at either 1 h or 2 h after administration. The amount of injected activity per gram of tissue (% IA/g) in the tumor and major organs was quantified (FIG. 16).”
# AR42J (rat pancreatic cancer cell line) tumour bearing Balb/c nude mice as described above were injected intravenously via tail vein injection with ^89ZrDFOSqTATE or ^89ZrDFOSqTIDE (2-3 MBq). At 1, 2, 4 and 18 h post-injection the mice were anaesthetised with isoflurane and imaged over 10 min. At 1 hr after injection of DFOSqTIDE and DFOSqTATE, uptake into kidney, tumour and liver was observed. Representative PET images of mice injected with DFOSqTIDE and DFOSqTATE are shown in FIG. 12 and quantitation of the tumour SUVmax for each radiotracer is summarised in FIG. 13a.
# ^68GaDFOSq-TIDE and ^68GaDFOSq-TATE tracers were injected (2-3 MBq, 1 μg, 0.5 nmol) intravenously via tail vein to AR42J (rat pancreatic cancer cell line) tumour bearing Balb/c nude mice. PET images were acquired at 1 and 2 h post-injection (FIGS. 15a and b). […] Quantification of the uptake in the images using Standard Uptake Value (SUVmax=radioactivity in a tissue/injected activity/BW) confirms the higher uptake for ^68GaDFOSq-TATE (1 h; SUVmax 1.8±0.2, compared to 1.21±0.20, FIG. 15c). The higher tumor uptake of ^68GaDFOSqTATE was also associated with a higher degree of tumor retention at 2 h post injection with only a 5% reduction in SUVmax whereas the tumor SUVmax for ^68GaDFOSqTIDE reduced by 30% ^68GaDFOSqTATE at 2 h post injection. Both tracers clear rapidly from the blood and there is low uptake in bone consistent with stable gallium-68 complexes as well as low uptake in muscle. Both tracers have significant uptake in the kidneys and bladder.
Compound,tissue uptake at 1 h (in vivo [1]; iv),tissue uptake at 18 h (in vivo [1]; iv),Tumour SUVmax 1 h pi [2],Tumour SUVmax 18 h pi [2],Tumour SUVmax Clearance % [2],also measured
"CC(=O)N(O)CCCCCNC(=O)CCC(=O)N(O)CCCCCNC(=O)CCC(=O)N(O)CCCCCNc1c(NCCN(CCNC(=O)CCCC(=O)NCCCCC(NC(=O)NC(CCC(=O)O)C(=O)O)C(=O)O)CCNC(=O)CCCC(=O)NCCCCC(NC(=O)NC(CCC(=O)O)C(=O)O)C(=O)O)c(=O)c1=O (single isomer, unassigned) [(3), DFOSq-bisPSMA ligand]",5.9 %ID/g,2.5 %ID/g,–,–,–,–
"CC(=O)N(O)CCCCCNC(=O)CCC(=O)N(O)CCCCCNC(=O)CCC(=O)N(O)CCCCCNc1c(NCc2ccc(C(=O)NCCCCC(NC(=O)NC(CCC(=O)O)C(=O)O)C(=O)O)cc2)c(=O)c1=O (single isomer, unassigned) [^68Ga(1), metal not drawn]",–,–,1.0 ± 0.02,–,–,Gall bladder uptake in PET images [2]: high uptake; Gut uptake in PET images [2]: high uptake; Kidney uptake in PET images [2]: high uptake; LNCap tumour uptake in PET images [2]: moderate uptake; Tumour SUVmax 2 h pi [2]: 0.8 ± 0.05; tissue uptake at 1 h (in vivo [1]): 6.5 ± 0.38 %ID/g; tissue uptake at 2.5 h (in vivo [1]; Tumour Uptake % ID/g 2.5 h pi): 4.1 ± 0.51 %ID/g; Tumour Uptake % ID/g 1 h pi [3]: 6.5±0.4 % ID/g; Tumour Uptake % ID/g 2.5 h pi [3]: 4.1±0.5 % ID/g
"CC(=O)N(O)CCCCCNC(=O)CCC(=O)N(O)CCCCCNC(=O)CCC(=O)N(O)CCCCCNc1c(NCc2ccc(C(=O)NCCCCC(NC(=O)NC(CCC(=O)O)C(=O)O)C(=O)O)cc2)c(=O)c1=O (single isomer, unassigned) [^89Zr(1), metal not drawn]",4.6 ± 0.45 %ID/g,1.7 ± 0.18 %ID/g,1.1 ± 0.12,0.4 ± 0.05,63%,–
"CC(=O)N(O)CCCCCNC(=O)CCC(=O)N(O)CCCCCNC(=O)CCC(=O)N(O)CCCCCNc1c(NCCN(CCNC(=O)CCCC(=O)NCc2ccc(C(=O)NCCCCC(NC(=O)NC(CCC(=O)O)C(=O)O)C(=O)O)cc2)CCNC(=O)CCCC(=O)NCc2ccc(C(=O)NCCCCC(NC(=O)NC(CCC(=O)O)C(=O)O)C(=O)O)cc2)c(=O)c1=O (single isomer, unassigned) [^89Zr(4), metal not drawn]",9.3 ± 0.33 %ID/g,3.7 ± 1.07 %ID/g,3.2 ± 0.30,1.5 ± 0.18,54%,–
"CC(=O)N(O)CCCCCNC(=O)CCC(=O)N(O)CCCCCNC(=O)CCC(=O)N(O)CCCCCNc1c(NCCNC(=O)CN(CCN(CC(=O)O)CC(=O)Nc2ccc(C(=O)NCCCCC(NC(=O)NC(CCC(=O)O)C(=O)O)C(=O)O)cc2)CC(=O)O)c(=O)c1=O (stereo not shown) [(2), DFOSq-EDTA-PSMA ligand]",3.2 %ID/g,1 %ID/g,–,–,–,–
"CC(=O)N(O)CCCCCNC(=O)CCC(=O)N(O)CCCCCNC(=O)CCC(=O)N(O)CCCCCNc1c(NCCN(CCNC(=O)CCCC(=O)NCc2ccc(C(=O)NCCCCC(NC(=O)NC(CCC(=O)O)C(=O)O)C(=O)O)cc2)CCNC(=O)CCCC(=O)NCc2ccc(C(=O)NCCCCC(NC(=O)NC(CCC(=O)O)C(=O)O)C(=O)O)cc2)c(=O)c1=O (stereo not shown) [(4), DFOSq-bisPhPSMA ligand]",9.3 %ID/g,3.7 %ID/g,–,–,–,–
CC(=O)N(O)CCCCCNC(=O)CCC(=O)N(O)CCCCCNC(=O)CCC(=O)N(O)CCCCCNc1c(N[C@H](Cc2ccccc2)C(=O)N[C@H]2CSSC[C@@H](C(=O)N[C@H](C(=O)O)[C@@H](C)O)NC(=O)[C@H]([C@@H](C)O)NC(=O)[C@H](CCCCN)NC(=O)[C@@H](Cc3c[nH]c4ccccc34)NC(=O)[C@H](Cc3ccc(O)cc3)NC2=O)c(=O)c1=O [DFOSqTATE] (H-[X1]([Suc-X2])CY[dW]KTCT-OH; disulfide 2-7),–,–,–,–,–,tissue uptake at 1 h (in vivo [4]; Tumour Uptake % ID/g 1 h pi): 10.4 ± 0.5 %ID/g; tissue uptake at 18 h (in vivo [4]; Tumour Uptake % ID/g 18 h pi): 4.9 ± 0.8 %ID/g; Tumour SUVmax Clearance % [5]: 58%
"CC(=O)N(O)CCCCCNC(=O)CCC(=O)N(O)CCCCCNC(=O)CCC(=O)N(O)CCCCCNc1c(NCCNC(=O)CN(CCN(CC(=O)O)CC(=O)Nc2ccc(C(=O)NCCCCC(NC(=O)NC(CCC(=O)O)C(=O)O)C(=O)O)cc2)CC(=O)O)c(=O)c1=O (stereo not shown) [^89Zr(2), metal not drawn]",–,–,0.7 ± 0.03,0.3 ± 0.01,57%,"Tumour Uptake % ID/g 1 h pi ([3]; male, iv, 1 h): 3.2 ± 0.72 % ID/g; Tumour Uptake % ID/g 18 h pi ([3]; male, iv, 18 h): 0.9 ± 0.09 % ID/g"
